Reference: the RNAGym collection of RNA variant scans (doi:10.1073/pnas.2313332121)
Fewer inactive variants are shown than the library holds.

B1: TPR 5TU (parent)
chain: GGAUCUUCUCGAUCUAACAAAAAAGACAAAUCUGCCACAAAGCUUGAGAGCAUCUUCGGAUGCAGAGGCGGCAGCCUUCGGUGGCGCGAUAGCGCCAACGUUCUCAACUAUGACACGCAAAACGCGUGCUCCGUUGAAUGGAGUUUAUCAUG

Variants of: B1
Assay: polymerase ribozyme fitness, log enrichment relative to wild type (log ratio); higher = more active; in vitro selection for triplet polymerase activity
Method in brief: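 Each subunit of a heterodimeric triplet polymerase ribozyme was represented by a PCR-built, transcribed mutant library that underwent triplicate single-round in vitro selection with frozen incubation at −7 °C. Extended constructs were recovered by gel excision, streptavidin-bead capture and RT-PCR, and Illumina sequencing of input and output libraries kept genotypes with ≥10 input reads and ≥1 read per output. Fitness is the logarithm of genotype enrichment relative to wild-type enrichment, from inverse-variance-weighted replicate averages, with a logarithm base of 2.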

Row | Variant | polymerase ribozyme fitness (log ratio)
1 | U33G C43U A49C U77G A91U U101A C105G | ≤ -4.2
2 | C32U G59C A89C G94C | -3.87
3 | U33A C43U A60U C93A C96U U151C G152A | ≤ -4.2
4 | C32U G68A C85A G94A U139A A147C | ≤ -4.2
5 | C35A U45A U101A | -4.13
6 | U31A C93G C95U C96A A113G | ≤ -4.2
7 | C32U G94U C116G | -3.95
8 | C35A A60U U77A U82A G83C A97U G126A | -3.93
9 | U33G G50C U56A U134G U145C | ≤ -4.2
10 | U31G U61A A66G U90C U101C | ≤ -4.2
11 | U33C C36U U56A G84U U90C A110C G143C | ≤ -4.2
12 | C32A A37C C95U | ≤ -4.2
13 | U31G C54A G88A G126A G141A | ≤ -4.2
14 | C35A A107U C108U | -3.61
15 | C32G G59C A66G U102A | ≤ -4.2
16 | U31A A40G U44G G141C | -4.06
17 | C32U A52C U55G C57A | -3.11
18 | C32U U77G C103G A138U | ≤ -4.2
19 | U31C G71A G86C C118A U151G | ≤ -4.2
20 | G34A A39U C96A U135C G140C | ≤ -4.2
21 | U33C C51U G59C C63A A120C C125G U134G | ≤ -4.2
22 | U31G A91U | -4.03
23 | C35G G71A C96G U139G | -3.91
24 | C35G C95G A97C C114G G124A A138G | ≤ -4.2

Row | Variant | polymerase ribozyme fitness (log ratio)
25 | G34A U55A G70U G80U G86A | ≤ -4.2
26 | U31G A39C G50A G92U G117A G140U U145A A147G | ≤ -4.2
27 | C35G U82A G94U G126A A138U | ≤ -4.2
28 | C32G G42A U77C G84U | ≤ -4.2
29 | U31G C85U | 0.998
30 | U33G G50U C51G A52C C76A G92A C93A A98U | ≤ -4.2
31 | G34U A106G | -0.622
32 | U31C U55A G86C | -2.47
33 | C32G G59C U61A U82A G84U U134G G140C | ≤ -4.2
34 | C35G | -3.25
35 | C35U | -0.0953
36 | C35A | -2.69
37 | U31C A97G U135C U146C | -1.76
38 | U33A G50A A64C G83C | ≤ -4.2
39 | U31A A49C C99G C108G | ≤ -4.2
40 | U31G C43G U53A G83U | ≤ -4.2
41 | C32U U56A A91U A113U C118A G143C C149U | ≤ -4.2
42 | U31G C57A G136A G140A U146A | -3.1
43 | C32U G74A C93U | -0.21
44 | U33C C36U C54A C72U G84U C85A U148G | ≤ -4.2
45 | C35A A41C C57U C85G | ≤ -4.2
46 | G34U G68U C95G G133A | ≤ -4.2
47 | C32U A37G G46U U77C G86C A115G A119U | ≤ -4.2
48 | U31C A52C U56A U82C A107U | ≤ -4.2

Row | Variant | polymerase ribozyme fitness (log ratio)
49 | C35G C79A G83A A121U | ≤ -4.2
50 | C32U G59C G84A | -1.81
51 | G34U U55A A91G G94U | ≤ -4.2
52 | U33A U145C | -4
53 | U31G G59U A138U | ≤ -4.2
54 | G34A U55A | -2.46
55 | C35A G50C G86U C118A | ≤ -4.2
56 | G34A C85U A147C U148G G152U | ≤ -4.2
57 | C35U A37C U55A C95U | -1.32
58 | C35A A47U C57U U101A C114G C123U | ≤ -4.2
59 | C32A C85G | ≤ -4.2
60 | G34A C35A G83C A106U G133U A137G G141U | ≤ -4.2
61 | C35A G70A C79U G81A | ≤ -4.2
62 | U31C A41C A91C C95G U139A G143C | ≤ -4.2
63 | C35G G58C C75G C76U A89U C95G C108A A137C | ≤ -4.2
64 | C32G U82G | ≤ -4.2
65 | C32A C36G A47G C72G A89G A91G | ≤ -4.2
66 | C35A G86A | ≤ -4.2
67 | C32G G50C C51U G88A A110G | -4.19
68 | G34U A47G C57G G68A U102A | ≤ -4.2
69 | G34C C75A G94A C108G U130A | ≤ -4.2
70 | C32U C57U A121U C125U | -1.52
71 | C32G C87G C93U C99G U104A C123U | ≤ -4.2
72 | C32G A91C G117U A137U | ≤ -4.2

Row | Variant | polymerase ribozyme fitness (log ratio)
73 | C32G C57U G80C G86C G152U | ≤ -4.2
74 | U31A C96U C99A | -1.23
75 | U31A C93U | 0.0654
76 | C35A G62C U109G A122U A142C | ≤ -4.2
77 | C32A U77G G88A G126C G143U | ≤ -4.2
78 | U31G A37C U61A G126C U145C | ≤ -4.2
79 | U31G U56A | 0.083
80 | C35G C96U | -4.18
81 | G34A G71C C105G G143U | ≤ -4.2
82 | U31A C54A G84U C85U | -2.6
83 | U33G C35U G59U C75G G128A U139A | -4.05
84 | C32U G34C C51U U130G U145A | ≤ -4.2
85 | U33A C43A C76U G92A G117U | -3.86
86 | C35G U53G A64C C79G U109A A115U G128C A142G | ≤ -4.2
87 | C32U U55A C63U C118A | -3.08
88 | U33G U56A C69U C87G U101C | ≤ -4.2
89 | U31A G67U G83A C85A U104G C105U G136A | ≤ -4.2
90 | C32G G59C C96A U144A | ≤ -4.2
91 | U31G C54G | -1.02
92 | U33G G124A U134G | ≤ -4.2
93 | C32U A52C U55G C118U | ≤ -4.2
94 | C32A C38U U55A G94A G126C | -3.92
95 | C35U A52G C76A A89C U145A | -3.45
96 | U31C A98U U134A | -1.41

Row | Variant | polymerase ribozyme fitness (log ratio)
97 | C35U C51G G71U C131U | ≤ -4.2
98 | U33A A49C G50C C76A C85G A138U U151C | ≤ -4.2
99 | U33A U44G A107G A122G C132U | ≤ -4.2
100 | G34A A66U C75U A137G | ≤ -4.2
101 | C32G U56A C57A C114G | -4.19
102 | U31C U44A G94C C96G U102G U151C | ≤ -4.2
103 | U31A A39G G94U | -2.07
104 | U33G C54U C96G A147U | -3.24
105 | U31C G92C G126U | 0.158
106 | U33A C38G A52U C87G G136A | ≤ -4.2
107 | G34U U56G G58A C69G G94C A97G U134C | ≤ -4.2
108 | G34C C51G C57U G83C | ≤ -4.2
109 | C32U G50U C95A C131U G143A U151C | ≤ -4.2
110 | C35U C43A A60C U101G | ≤ -4.2
111 | G34C A39G A49C A97U | ≤ -4.2
112 | U31A C38U C95U C96A | -1.16
113 | C32G U53A C79U G140U | -4.06
114 | C32A A40U G62U C85G U146A | ≤ -4.2
115 | C35U A97G U134G U144G | -2.34
116 | C32U G59A | -1.99
117 | U31C U45A A97U G117A | -4.09
118 | C32G A39C A41C A52U G94C C116G | ≤ -4.2
119 | G34A C93A | -3.6
120 | G34A C85A G133A | ≤ -4.2

Row | Variant | polymerase ribozyme fitness (log ratio)
121 | U33A A52G A60U G84A C95G U109G A115U G133U G140C U146G | ≤ -4.2
122 | C35U A41C C105A | -4.09
123 | U31G G83A A138G | ≤ -4.2
124 | G34U G50U A91C | -4.01
125 | C32U U45A C54A G84A C85A G92A C93A | ≤ -4.2
126 | C32G G58A G84A A107G G124C U130G | ≤ -4.2
127 | C32G C87A A107G | ≤ -4.2
128 | U31C U56G C123A G136C | -2.61
129 | U33A C72U A73G G124U | -3.23
130 | U33A C75G U78A U101A G152U | -4.02
131 | C32U G58C C63A | -3.84
132 | C32U A49U C51U C75U U102C U146G | ≤ -4.2
133 | U33G A49C C75G G92A U101G C105A | -4.15
134 | U33A U56A G94A | ≤ -4.2
135 | G34C C51A G58A G59C C96A A107U | ≤ -4.2
136 | U31A C75G C76G C96A U145G | ≤ -4.2
137 | C32G A49C U53A C85U G86U C99A A138G A150G | -4.03
138 | C35A A60C A97G U145G | ≤ -4.2
139 | U31C C76U C96U G136C U144C U148C | -3.9
140 | U31G C79U U90G A106G C108A A137C | ≤ -4.2
141 | U33C G71C | ≤ -4.2
142 | U31G G59A | 0.625
143 | G34U G94C | -3.96
144 | C35U A52G | -0.53

Row | Variant | polymerase ribozyme fitness (log ratio)
145 | U31A A49C C93U C118A A121U | ≤ -4.2
146 | C32U A37U U56C C95U U145G U148G | ≤ -4.2
147 | G34A A60G G94A A147G A150C | ≤ -4.2
148 | C35U A40U U55A C99A U101G G152A | ≤ -4.2
149 | U31C A52C C54U U139C G143U | ≤ -4.2
150 | G34U A60C G62A G70A G83C C95G U104C | ≤ -4.2
151 | U31G C57G G88U | ≤ -4.2
152 | U31A U134A | -1.82
153 | C35U A60G G136U | -3.08
154 | U33C C85U A119G | -3.71
155 | U31G C54U U109G A137G | -2.71
156 | U33A A60C G74A A137C A150U | ≤ -4.2
157 | U31A C95G C125A | -1.34
158 | U31C C93U C131U | 1.12
159 | C32A G65A G88A C118U A120C A142G U144C | ≤ -4.2
160 | U31G A52C G83A | -2.81
161 | C32A C51G C72U C85G A97C U101G | ≤ -4.2
162 | U31A G70A C76A C96U | ≤ -4.2
163 | C35A C76U | -3.95
164 | C35A C76A | -4.08
165 | C35U A60G C79U G86C C93G G94A U104C | ≤ -4.2
166 | U31G A40U G48A G84A C87U A119U | ≤ -4.2
167 | U31G A89G C95U | -1.41
